Assay results: patent US8460929B2, “Methods of tissue generation and tissue engineered compositions” (The Regents of the University of California, priority 2007, dated 2013)

Assays:
[1] = tested on: isolated ureteric bud; experiment: Isolated ureteric bud culture in 3D extracellular matrix gel (soluble factor effects); type: cell-based, rat; details: for induction of isolated UB, WD, or UB and WD branching morphogenesis: factor alone or in combination with GDNF, without BSN-CM; for Shape: rat E13 isolated UB in 3D gel, GDNF 125 ng/ml, HRG 500 ng/ml, FGF1 250 ng/ml, FGF7 50 ng/ml, PTN purified from BSN-CM; for growth of the isolated UB, single soluble factor: factor by itself
Experimental: In the case of culture of the isolated UB, WD, or UB and WD, the isolated kidneys were trypsinized for 15 min at 37° C. in L-15 media containing 2 μg/ml trypsin (Sigma). Trypsin digestion was arrested by the addition of 10% FCS and the kidneys were removed to fresh L-15 where the UBs, WDs, or UBs and WDs were isolated from surrounding MM by mechanical dissection. isolated UBs, WDs, or UBs and WDs were suspended within an extracellular matrix gel [1:1 mixture of growth factor reduced Matrigel™ (BD) and Type 1 collagen (BD)] applied to the top of a polyester Transwell filter (0.4 μm pore size; Corning-Costar). The Transwells were placed within individual wells of a 24-well tissue culture dish containing 400 μl of either whole BSN-CM, purified tractions of BSN-CM, or D-12 which were supplemented with human recombinant FGF1 (250 ng/ml; R&D Systems), rat recombinant GDNF (125 ng/ml; R&D Systems) and 10% FCS and cultured. Phase-contrast photomicrographs of the developing UB, WD, or UB and WD were taken using a RT-Slider Spot Digital Camera (Diagnostic Instruments Inc.) attached to a Nikon Eclipse TE300 Inverted Microscope.
Isolated ureteric bud, Wolffian duct bud, or ureteric and Wolffian duct buds were obtained from whole embryonic kidneys as described herein. Briefly, the embryonic kidney was lightly digested with trypsin and the UB, WD, or UB and WD were separated from the MM using fine-tipped needles. The UBs, WDs, or UBs and WDs were suspended within a matrix containing growth factor reduced Matrigel™ and Type I collagen and buffered by HEPES, NaHCO3, and DMEM to a pH of approximately 7.2. This mixture containing the suspended UB, WD, or UB and WD was applied to the top of the Transwell filter and the purified factor is applied to the well. The factor is supplemented with GDNF (125 ng/ml) and 10% FCS, and the isolated UBs, WDs, or UBs and WDs are cultured at 37° C. and humidified 5% CO2 atmosphere and branching morphogenesis, was assayed.
The entire urogenital tract was isolated from timed pregnant Holtzman rats at embryonic day 13 (E13). Kidney rudiments were dissected and lightly digested in trypsin for 15 minutes, after which the ureteric buds were mechanically separated from the metanephric mesenchyme. For the growth factor optimization, the buds were suspended within a matrix containing growth factor-reduced Matrigel™ and DMEM/F12 (50:50 v/v) on a 0.4 μm pore sized Transwell filter and BSN-conditioned media supplemented with 10% FCS and 1% antibiotics was placed beneath the filter. GDNF (125 ng/ml), FGF1 (250 ng/ml), FGF7 (50 ng/ml), HRG (500 ng/ml), PTN (purified from BSN-CM) was added to the media in various combinations to achieve a “minimal” and “most robust” growth factor condition. For the matrix optimization, isolated buds were cultured in a BSN-CM supplemented with 10% FCS, GDNF (125 ng/ml), FGF1 (250 ng/ml), and 1% antibiotics. Isolate buds were suspended in matrices (natural and artificial) consisting of growth factor reduced Matrigel™ diluted with DMEM/F12 (15%, 25%, 50%, 75% and 100%), type I collagen (3.0 mg/ml), Puramatrix™, 1% alginate solution (crosslinked with 100 mM CaCl2), and type IV collagen (0.75 mg/mL). In some cases, type I collagen, laminin 1, alginate or type IV collagen were added to a 50% growth factor reduced Matrigel™ solution. All matrix solutions were supplemented with DMEM and buffered by HEPES and NaHCO3 to a pH of approximately 7.2. The isolated buds were then cultured at 37° C. in a humidified 5% CO2 atmosphere.

[2] = tested on: Wolffian duct; experiment: Wolffian duct budding in vitro; type: cell-based, rat; details: whole mesonephros on Transwell filter, 10% serum and 10 ng/mL GDNF, two days
Source text: The entire urogenital tract was isolated from timed pregnant Holtzman rats at embryonic day 13 (E13). Kidney rudiments were dissected, and the Wolffian duct was transected and removed. In some cases, the mesonephric tubules and most of the intermediate mesoderm were mechanically separated from the WD leaving a thin layer of the intermediate mesoderm that remained adherent to the WD. In some cases, the intermediate mesoderm was carefully stripped away in its entirety so that the epithelial tube of the WD remained intact. The WD with mesonephros and the WD with intermediate mesoderm were placed on 0.4 μm pore size Transwell filters and cultured at the air-media interface. The isolated WD devoid of all intermediate mesoderm was suspended in a matrix containing growth factor reduced Matrigel'm and DMEM/F12 (50:50 v/v) on a 0.4 μm pore sized Transwell filter. All cultures were carried out at 37° C. in a fully humidified 5% CO2 atmosphere in the presence of DMEM/F12 (50:50) media supplemented with 10% fetal calf serum (FCS), GDNF (10 ng/mL for the WD plus mesonephros, 125 ng/ml WD plus mesoderm and isolated WD) and, if necessary, either FGF1 (250 ng/ml) or FGF7 (50 ng/ml).

[3] = tested on: UB, WD, or UB and WD derived cells; experiment: UB cell three-dimensional culture (tubulogenic activity); type: cell-based, mouse; details: collagen/Matrigel gel, 1% FCS, 4 days
Experimental: Confluent monolayers of UBs, WDs, or UBs and WDs were removed from tissue culture dishes by light trypsinization and the cells. 20,000 cells/ml were suspended in an extracellular matrix gel composed of 80% Type 1 collagen and 20% growth factor-reduced Matrigel™. 100 μl of the UB, WD, or UB and WD cell-containing gel was then aliquoted into individual wells of a 96-well tissue culture plate. After gelation, 100 μl of growth medium (DMEM/F12 with or without purified pleiotrophin) supplemented with 1% FCS was applied to each well and the cultures were incubated at 32° C. in 5% CO2 and 100% humidity. Following 4 days of culture, the percentage of cells/colonies with processes was counted as an indicator of the tubulogenic activity. Phase-contrast photomicrographs were taken as described herein.

[4] = tested on: whole embryonic kidney; experiment: Whole embryonic kidney organ culture; type: cell-based, rat
Source text: Timed pregnant female Sprague-Dawley rats at day 13 of gestation (day 0 coincided with appearance of the vaginal plug) were sacrificed and the uteri were removed. The embryos were dissected free of surrounding tissues and the kidneys were isolated. For the culture of the whole kidney rudiment, 2-3 kidneys were applied directly to the top of a polyester Transwell filter (0.4 μm pore size; Corning-Costar). The Transwells were then placed within individual wells of a 24-well tissue culture dish containing 400 μl DMEM/F12 supplemented with 10% FCS with or without purified pleiotrophin. Following 7 days of culture, the kidneys were fixed in 2% paraformaldehyde and doublestained with fluorescein-conjugated Dolichos biflorus, a lectin which binds specifically to UB, WD, or UB and WD-derived structures, and rhodamine conjugated peanut agglutinin, a lectin which binds to structures derived from the MM. Fluorescent staining was detected using a laser-scanning confocal microscope (Zeiss).

## Hepatocyte growth factor [HGF, reference compound]
[1]
  induction of isolated UB, WD, or UB and WD branching morphogenesis: does not induce branching morphogenesis

## fibroblast growth factor-1 [FGF1]
[1]; 250 ng/ml FGF1
  effect of added FGF1 on inductive capacity of BSN-CM: could potentiate the activity of the BSN-CM
[1]
  induction of isolated UB, WD, or UB and WD branching morphogenesis: not sufficient to induce
  Shape: tubular

## heregulin [HRG]
[1]
  growth of the isolated UB, single soluble factor: did not support growth

B1: glial cell-derived neurotrophic factor (protein, UniProt P39905 78-211, looked up)
Glial cell line-derived …: SPDKQMAVLPRRERNRQAAAANPENSRGKGRRGQRGKNRGCVLTAIHLNVTDLGLGYETKEELIFRYCSGSCDAAETTYDKILKNLSRNRRLVSDKVGQACCRPIAFDDDLSFLDDNLVYHILRKHSAKRCGCI
notes: growth factor obtained from R&D Systems
[1]
  growth of the isolated UB, single soluble factor: did not support growth
[2]
  Wolffian duct budding: numerous budding events occurred at multiple foci along the WD

B2: pleiotrophin (protein, UniProt P21246 33-168, looked up)
Pleiotrophin: GKKEKPEKKVKKSDCGEWQWSVCVPTSGDCGLGTREGTRTGAECKQTMKTQRCKIPCNWKKQFGAECKYQFQAWGECDLNTALKTRTGSLKRALHNAECQKTVTISKPCGKLTKPKPQAESKKKKKEGKKQEKMLD
[3]
  formation of branching structures of UB cells in three dimensional culture: capable of inducing the formation of branching structures
[4]; exogenously added pleiotrophin, 7 days
  growth of the UB in whole embryonic kidney organ culture: disproportionately stimulated growth
[4]; high concentrations of pleiotrophin
  Nephron induction visualized with PNA lectin: appeared to be normal
[1]; 156 ng/ml-2.5 pg/ml purified pleiotrophin
  morphology of the branching UB, lower concentrations: dichotomous branching and elongation of the stalk
[1]; cultures in collagen IV or basement membrane Matrigel
  concentrations useful for morphogenetic activity: 200 to 600 ng/mL
[1]
  growth of the isolated UB, single soluble factor: did not support growth
[1]; pure pleiotrophin isolated from Swiss 3T3 conditioned medium
  branching morphogenesis of the isolated UB, pleiotrophin purified from 3T3 conditioned medium: capable of inducing impressive branching morphogenesis
[1]; supplemented with GDNF, in the absence of FGF1
  induction of UB, WD, or UB and WD branching morphogenesis: capable of inducing
[1]; ≧5 μg/ml purified pleiotrophin
  morphology of the branching UB, high concentration: robust proliferation with less elongation

B3: recombinant human pleiotrophin: recombinant human pleiotrophin produced in the insect cell line (R&D systems) (protein, UniProt P21246 33-168, looked up)
Pleiotrophin: B2 Pleiotrophin
[1]; E13 rat bud in extracellular matrix gel, with GDNF
  branching morphogenesis of the isolated UB, WD, or UB and WD: unable to induce

B4: fibroblast growth factor-7 (protein, UniProt P21781 32-194, looked up)
Fibroblast growth factor 7: CNDMTPEQMATNVNCSSPERHTRSYDYMEGGDIRVRRLFCRTQWYLRIDKRGKVKGTQEMKNNYNIMEIRTVAVGIVAIKGVESEFYLAMNKEGKLYAKKECNEDCNFKELILENHYNTYASAKWTHNGGEMFVALNQKGIPVRGKKTKKEQKTAHFLPMAIT
notes: as for B1
[1]
  Shape: globular
